This is an account of results in patent publication US20140087995A1 (published 2014).

Numbered stars: 1 amine (or outer) side, 2 acyl side, 3 side chain; on linkers, the order of the positions; unused ones are H or OH. Bridge positions count the residues as written; N and C are the ends. Side chains are listed from the residue outwards. Ends that are not written are not given here. * marks the point of attachment. C20 diacid = O=C(O)CCCCCCCCCCCCCCCCCCC(=O)*; γGlu = O=C(O)[C@H](CCC(=O)[*:2])N[*:1]

The target in assay [1] is T1, human calcitonin receptor (human, UniProt P30988 25-474).
T1 construct: whole, on cells; Membranes of BHK cells stably transfected with the human calcitonin receptor (Assay VII); also called hCTR; hCT
T1 sequence (looked up): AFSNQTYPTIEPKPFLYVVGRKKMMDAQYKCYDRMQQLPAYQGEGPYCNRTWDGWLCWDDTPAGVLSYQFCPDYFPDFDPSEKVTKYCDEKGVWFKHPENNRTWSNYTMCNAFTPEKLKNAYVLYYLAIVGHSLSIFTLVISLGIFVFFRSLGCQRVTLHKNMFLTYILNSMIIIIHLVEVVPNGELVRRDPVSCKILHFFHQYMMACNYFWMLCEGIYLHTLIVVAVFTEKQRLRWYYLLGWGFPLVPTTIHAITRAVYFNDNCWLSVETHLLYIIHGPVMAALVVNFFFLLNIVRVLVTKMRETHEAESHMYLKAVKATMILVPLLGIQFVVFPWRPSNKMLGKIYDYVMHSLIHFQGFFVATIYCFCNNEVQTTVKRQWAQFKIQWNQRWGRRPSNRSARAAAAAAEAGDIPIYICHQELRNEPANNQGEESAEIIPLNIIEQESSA
The experiment in a line: ratio of IC50 at hCTR over IC50 at hAmylin-R (SPA competition assays). The method, then:
The resulting pellet was resuspended, homogenized and centrifuged (20.000 rpm, 15 min) in a buffer containing 20 mM Na-HEPES and 0.1 mM EDTA (pH 7.4, buffer 2). The resulting pellet was resuspended in buffer 2 and protein concentration was measured (BCA protein Assay, Pierce). The homogenate was kept cold during the whole procedure. The membranes were kept at −80° C. until use. The assay was performed in a 384 well Optiplate (PerkinElmer) in a total volume of 40 ul. Membranes were mixed with SPA beads. Final concentration of membranes 35 ng/μL final and SPA beads was 0.05 mg/well. Test-compounds were dissolved in DMSO and further diluted in assay buffer (50 mM Hepes, pH 7.4, 1 mM CaCl2, 5 mM MgCl₂, 0.1% OA and 0.02% Tween20). […] The final mixture was incubated with shaking at 400 rpm for 120 min at 25° C. prior to centrifugation (1500 rpm, 10 min). Samples were analyzed on TopCounter™ (Packard). The IC₅₀ was calculated using (one site binding competition analysis) GraphPad Prism5 as a measure of receptor affinity.
Membranes were prepared in the following way; the cells were rinsed with PBS and incubated with Versene for approximately 5 min before harvesting. The cells were flushed with PBS and the cell-suspension was centrifuged for 5 min at 1000 rpm. Cells were homogenized (Ultrathurrax) in a buffer containing 20 mM Na-HEPES and 10 mM EDTA (pH 7.4) and centrifuged at 20.000 rpm for 15 min. The resulting pellet was resuspended, homogenized and centrifuged (20.000 rpm, 15 min) in a buffer containing 20 mM Na-HEPES and 0.1 mM EDTA (pH 7.4, buffer 2). The resulting pellet was resuspended in buffer 2 and protein concentration was measured (BCA protein Assay, Pierce). The homogenate was kept cold during the whole procedure. The membranes were kept at −80° C. until use. Assay was performed in a 384 well Optiplate (PerkinElmer) in a total volume of 40 ul. Membranes were mixed with SPA beads.

Assay [2] addresses T1, human calcitonin receptor. Description: SPA competition against 125I-calcitonin, membranes of BHK cells with human calcitonin receptor (Assay VII). In short, it runs like this: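 BHK hCTR membranes 35 ng/μL + SPA beads 0.05 mg/well; buffer 50 mM Hepes pH 7.4, 1 mM CaCl2, 5 mM MgCl₂, 0.1% OA, 0.02% Tween20. 120 min, 25° C., shaking. Scintillation count; IC50 by one-site binding competition.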

B1: N^ε1-[(4S)-4-carboxy-4-(19-carboxynonadecanoylamino)butanoyl]-[Asp14,Arg17,Pro21,Pro27,Pro34,Glu35]-h-amylin (peptide)
peptide: K([γGlu-C20 diacid])CNTATCATQRLADFLRHSSPNFGAIPSSTNVGPETY-NH2
modifications: disulfide 2-7; N-terminus assumed
SMILES: CC[C@H](C)[C@H](NC(=O)[C@H](C)NC(=O)CNC(=O)[C@H](Cc1ccccc1)NC(=O)[C@H](CC(N)=O)NC(=O)[C@@H]1CCCN1C(=O)[C@H](CO)NC(=O)[C@H](CO)NC(=O)[C@H](Cc1c[nH]cn1)NC(=O)[C@H](CCCNC(=N)N)NC(=O)[C@H](CC(C)C)NC(=O)[C@H](Cc1ccccc1)NC(=O)[C@H](CC(=O)O)NC(=O)[C@H](C)NC(=O)[C@H](CC(C)C)NC(=O)[C@H](CCCNC(=N)N)NC(=O)[C@H](CCC(N)=O)NC(=O)[C@@H](NC(=O)[C@H](C)NC(=O)[C@@H]1CSSC[C@H](NC(=O)[C@@H](N)CCCCNC(=O)CC[C@H](NC(=O)CCCCCCCCCCCCCCCCCCC(=O)O)C(=O)O)C(=O)N[C@@H](CC(N)=O)C(=O)N[C@@H]([C@@H](C)O)C(=O)N[C@@H](C)C(=O)N[C@@H]([C@@H](C)O)C(=O)N1)[C@@H](C)O)C(=O)N1CCC[C@H]1C(=O)N[C@@H](CO)C(=O)N[C@@H](CO)C(=O)N[C@H](C(=O)N[C@@H](CC(N)=O)C(=O)N[C@H](C(=O)NCC(=O)N1CCC[C@H]1C(=O)N[C@@H](CCC(=O)O)C(=O)N[C@H](C(=O)N[C@@H](Cc1ccc(O)cc1)C(N)=O)[C@@H](C)O)C(C)C)[C@@H](C)O
As usually defined, the IC50 is the concentration that gives 50% inhibition. For B1, the “Ratio hCT/hAmylin binding” value in assay [1] was found to be 16.7. Also, the IC50 in assay [2] was 3.27 nM.

B2: N^ε1-[(4S)-4-carboxy-4-(19-carboxynonadecanoylamino)butanoyl]-[Glu14,Arg17,Pro21,Pro27,Pro34,His35]-h-amylin (peptide)
peptide: K([γGlu-C20 diacid])CNTATCATQRLAEFLRHSSPNFGAIPSSTNVGPHTY-NH2
modifications: disulfide 2-7
B2: the “Ratio hCT/hAmylin binding” value in assay [1] came to 21.2. The IC50 in assay [2] amounted to 3.8 nM.

B3: N^ε1-[(4S)-4-carboxy-4-(19-carboxynonadecanoylamino)butanoyl]-[Glu14,Arg17,Pro21,Pro27,Arg34,Glu35]-h-amylin (peptide)
peptide: K([γGlu-C20 diacid])CNTATCATQRLAEFLRHSSPNFGAIPSSTNVGRETY-NH2
modifications: disulfide 2-7; N-terminus assumed
SMILES: CC[C@H](C)[C@H](NC(=O)[C@H](C)NC(=O)CNC(=O)[C@H](Cc1ccccc1)NC(=O)[C@H](CC(N)=O)NC(=O)[C@@H]1CCCN1C(=O)[C@H](CO)NC(=O)[C@H](CO)NC(=O)[C@H](Cc1c[nH]cn1)NC(=O)[C@H](CCCNC(=N)N)NC(=O)[C@H](CC(C)C)NC(=O)[C@H](Cc1ccccc1)NC(=O)[C@H](CCC(=O)O)NC(=O)[C@H](C)NC(=O)[C@H](CC(C)C)NC(=O)[C@H](CCCNC(=N)N)NC(=O)[C@H](CCC(N)=O)NC(=O)[C@@H](NC(=O)[C@H](C)NC(=O)[C@@H]1CSSC[C@H](NC(=O)[C@@H](N)CCCCNC(=O)CC[C@H](NC(=O)CCCCCCCCCCCCCCCCCCC(=O)O)C(=O)O)C(=O)N[C@@H](CC(N)=O)C(=O)N[C@@H]([C@@H](C)O)C(=O)N[C@@H](C)C(=O)N[C@@H]([C@@H](C)O)C(=O)N1)[C@@H](C)O)C(=O)N1CCC[C@H]1C(=O)N[C@@H](CO)C(=O)N[C@@H](CO)C(=O)N[C@H](C(=O)N[C@@H](CC(N)=O)C(=O)N[C@H](C(=O)NCC(=O)N[C@@H](CCCNC(=N)N)C(=O)N[C@@H](CCC(=O)O)C(=O)N[C@H](C(=O)N[C@@H](Cc1ccc(O)cc1)C(N)=O)[C@@H](C)O)C(C)C)[C@@H](C)O
B3: in assay [1], the “Ratio hCT/hAmylin binding” value was found to be 28.5. Also, in assay [2], the 50% inhibitory concentration (IC50) stood at 6.62 nM.

B4: N^ε1-[(4S)-4-carboxy-4-(19-carboxynonadecanoylamino)butanoyl]-[Glu14,Arg17,Pro21,Pro27,Pro34,Arg35]-h-amylin (peptide)
peptide: K([γGlu-C20 diacid])CNTATCATQRLAEFLRHSSPNFGAIPSSTNVGPRTY-NH2
modifications: disulfide 2-7; N-terminus assumed
SMILES: CC[C@H](C)[C@H](NC(=O)[C@H](C)NC(=O)CNC(=O)[C@H](Cc1ccccc1)NC(=O)[C@H](CC(N)=O)NC(=O)[C@@H]1CCCN1C(=O)[C@H](CO)NC(=O)[C@H](CO)NC(=O)[C@H](Cc1c[nH]cn1)NC(=O)[C@H](CCCNC(=N)N)NC(=O)[C@H](CC(C)C)NC(=O)[C@H](Cc1ccccc1)NC(=O)[C@H](CCC(=O)O)NC(=O)[C@H](C)NC(=O)[C@H](CC(C)C)NC(=O)[C@H](CCCNC(=N)N)NC(=O)[C@H](CCC(N)=O)NC(=O)[C@@H](NC(=O)[C@H](C)NC(=O)[C@@H]1CSSC[C@H](NC(=O)[C@@H](N)CCCCNC(=O)CC[C@H](NC(=O)CCCCCCCCCCCCCCCCCCC(=O)O)C(=O)O)C(=O)N[C@@H](CC(N)=O)C(=O)N[C@@H]([C@@H](C)O)C(=O)N[C@@H](C)C(=O)N[C@@H]([C@@H](C)O)C(=O)N1)[C@@H](C)O)C(=O)N1CCC[C@H]1C(=O)N[C@@H](CO)C(=O)N[C@@H](CO)C(=O)N[C@H](C(=O)N[C@@H](CC(N)=O)C(=O)N[C@H](C(=O)NCC(=O)N1CCC[C@H]1C(=O)N[C@@H](CCCNC(=N)N)C(=O)N[C@H](C(=O)N[C@@H](Cc1ccc(O)cc1)C(N)=O)[C@@H](C)O)C(C)C)[C@@H](C)O
Consider B4, for which the “Ratio hCT/hAmylin binding” value in assay [1] amounted to 38.6. Besides, the IC50 in assay [2] was found to be 6.3 nM.

B5: N^ε1-[(4S)-4-carboxy-4-(19-carboxynonadecanoylamino)butanoyl]-[Glu14,Arg17,Pro21,Pro27,His35]-h-amylin (peptide)
peptide: K([γGlu-C20 diacid])CNTATCATQRLAEFLRHSSPNFGAIPSSTNVGSHTY-NH2
modifications: disulfide 2-7; N-terminus assumed
SMILES: CC[C@H](C)[C@H](NC(=O)[C@H](C)NC(=O)CNC(=O)[C@H](Cc1ccccc1)NC(=O)[C@H](CC(N)=O)NC(=O)[C@@H]1CCCN1C(=O)[C@H](CO)NC(=O)[C@H](CO)NC(=O)[C@H](Cc1c[nH]cn1)NC(=O)[C@H](CCCNC(=N)N)NC(=O)[C@H](CC(C)C)NC(=O)[C@H](Cc1ccccc1)NC(=O)[C@H](CCC(=O)O)NC(=O)[C@H](C)NC(=O)[C@H](CC(C)C)NC(=O)[C@H](CCCNC(=N)N)NC(=O)[C@H](CCC(N)=O)NC(=O)[C@@H](NC(=O)[C@H](C)NC(=O)[C@@H]1CSSC[C@H](NC(=O)[C@@H](N)CCCCNC(=O)CC[C@H](NC(=O)CCCCCCCCCCCCCCCCCCC(=O)O)C(=O)O)C(=O)N[C@@H](CC(N)=O)C(=O)N[C@@H]([C@@H](C)O)C(=O)N[C@@H](C)C(=O)N[C@@H]([C@@H](C)O)C(=O)N1)[C@@H](C)O)C(=O)N1CCC[C@H]1C(=O)N[C@@H](CO)C(=O)N[C@@H](CO)C(=O)N[C@H](C(=O)N[C@@H](CC(N)=O)C(=O)N[C@H](C(=O)NCC(=O)N[C@@H](CO)C(=O)N[C@@H](Cc1c[nH]cn1)C(=O)N[C@H](C(=O)N[C@@H](Cc1ccc(O)cc1)C(N)=O)[C@@H](C)O)C(C)C)[C@@H](C)O
Turning to B5, in assay [1], the “Ratio hCT/hAmylin binding” value is 26.4. In addition, the IC50 in assay [2] turned out to be 26.1 nM.

B6: N^ε1-[(4S)-4-carboxy-4-(19-carboxynonadecanoylamino)butanoyl]-[Glu14,Arg17,Pro21,Pro27,His34,Glu35]-h-amylin (peptide)
peptide: K([γGlu-C20 diacid])CNTATCATQRLAEFLRHSSPNFGAIPSSTNVGHETY-NH2
modifications: disulfide 2-7; N-terminus assumed
SMILES: CC[C@H](C)[C@H](NC(=O)[C@H](C)NC(=O)CNC(=O)[C@H](Cc1ccccc1)NC(=O)[C@H](CC(N)=O)NC(=O)[C@@H]1CCCN1C(=O)[C@H](CO)NC(=O)[C@H](CO)NC(=O)[C@H](Cc1c[nH]cn1)NC(=O)[C@H](CCCNC(=N)N)NC(=O)[C@H](CC(C)C)NC(=O)[C@H](Cc1ccccc1)NC(=O)[C@H](CCC(=O)O)NC(=O)[C@H](C)NC(=O)[C@H](CC(C)C)NC(=O)[C@H](CCCNC(=N)N)NC(=O)[C@H](CCC(N)=O)NC(=O)[C@@H](NC(=O)[C@H](C)NC(=O)[C@@H]1CSSC[C@H](NC(=O)[C@@H](N)CCCCNC(=O)CC[C@H](NC(=O)CCCCCCCCCCCCCCCCCCC(=O)O)C(=O)O)C(=O)N[C@@H](CC(N)=O)C(=O)N[C@@H]([C@@H](C)O)C(=O)N[C@@H](C)C(=O)N[C@@H]([C@@H](C)O)C(=O)N1)[C@@H](C)O)C(=O)N1CCC[C@H]1C(=O)N[C@@H](CO)C(=O)N[C@@H](CO)C(=O)N[C@H](C(=O)N[C@@H](CC(N)=O)C(=O)N[C@H](C(=O)NCC(=O)N[C@@H](Cc1c[nH]cn1)C(=O)N[C@@H](CCC(=O)O)C(=O)N[C@H](C(=O)N[C@@H](Cc1ccc(O)cc1)C(N)=O)[C@@H](C)O)C(C)C)[C@@H](C)O
notes: also called compound 107
As to B6, the “Ratio hCT/hAmylin binding” value in assay [1] is 11.1. Also, the IC50 in assay [2] was determined as 4.28 nM.
